Like-named read-outs stand apart in the source and are kept apart here.
What was measured:
[1] = ref Fan et al. 2006; cited from earlier work
Protocol: Multiple clearance mechanisms may be involved with peginesatide as clearance involves glomerular filtration; a presumably non-saturable elimination. […] High concentrations of radioactivity were also measured in the liver. In addition, negligible excretion (<0.1%) of the radiolabel was d ...

[2] = ref Im et al. 2010, cited from earlier work
Source text: The totality of the metabolism data is consistent with in vitro studies conducted in liver and kidney micro-somes and S9 fractions from rats, monkeys, and human donors ([Im et al. 2010]).

[3] = cited from earlier work
Protocol: Erythropoietin is deficient in patients with CKD-associated anemia. Administration of ESAs, such as peginesatide, leads to activation of the appropriate signaling at the EPO receptor ([Fan et al. 2006]). […] The principal findings in the single and repeat dose toxicity studies are primarily attributed to the pharmacological effects of peginesatide and secondary sequelae when an ESA is administered to an initially nor ...

[4] = Mass balance study (urine, feces, expired air, carcass); conditions: initial 3 days after dosing; single IV 5 mg·kg^−1
Source text: Radioactivity in diluted formulations, plasma, urine, and expired air (CO2-absorbent solution) was quantitated by mixingwith liquid scintillator Hionic-Fluor (PerkinElmer Life and Analytical Sciences) followed by liquid scintillation counting (LSC). Solid samples were homogenized (10 or 20% w/v in distilled water) before combustion in a sample oxidizer (A030701; PerkinElmer Life and Analytical Sciences) with Carbo-Sorb E (PerkinElmer Life and Analytical Sciences) as a carbon dioxide absorbent and Permafluor E^+ (PerkinElmer Life and Analytical Sciences) as a liquid scintillator. Total captured radioactivity was subsequently measured via LSC.
Urine and feces were collected at 24-h intervals up to 14 days after dosing and expired air was collected up to 24 h after dosing. The levels of radioactivity in urine and expired air were measured by LSC and in feces by LSC following combustion. After the final collection of excreta at 2 weeks, the animals were sacrificed and the carcasses were dissolved in potassium hydroxide/distilled water/ethanol (3:3:7, w/v/v), and examined for residual radioactivity by LSC.

[5] = In vivo metabolite profiling, plasma and tissues at 14 days; set-up: species or system male Sprague-Dawley rats; conditions: rat, iv, 5 mg/kg
Protocol: (§1) The metabolite profiling in the biological samples from rats dosed with [^14C]-peginesatide was performed by high-performance liquid chromatography (HPLC). The radiolabeled materials in the samples of plasma and aqueous homoge-nates of tissues and feces were extracted with five volumes of methanol containing 0.1% of trifluoroacetic acid (TFA), mixed and centrifuged at 1500g at 4°C for l0 min to obtain supernatant. A portion of the supernatant was counted to estimate the extraction recovery of [^14C]-peginesatide and its related compounds in the biological samples. The rest of the supernatant was evaporated to dryness under a nitrogen gas stream. The residue was re-dissolved in a small volume of equal parts mobile phase [MP(A)] and B [MP(B)] for chromatographic analysis. The HPLC system (Simadzu, Kyoto, Japan) consisted of a LC-lOADvp pump, a CTO-lOACvp column oven, an SPD-lOAvp UV detector, and an SCL-lOAvp system controller. […] A mixture of 0.1% TFA aqueous solution and 0.1% TFA in methanol solution were used for MP(A) and MP(B), respectively. The flow rate was 0.5mL/min, and the peaks were monitored by a UV absorption detector at 215 run. The time for the gradient elution was as follows: the concentration of MP(B) was increased from 50 to 80% and from 80 to 83% over a period of 2-10min and 10-20min, respectively. […] The effluentwas collected into 0.5mL size fractions, followed by counting of the radioactivity (LSC). Under these conditions unchanged peginesatide and mono-PEG eluted at approximately 22 and 10 min, respectively.
A single dose of [^14C]-peginesatide at 5 mg·kg^−1 was administered to male Sprague-Dawley rats (n = 9) by IV injection. At 14 days after dosing, animals were euthanized and samples of plasma, liver, spleen, kidneys, testes, and bone marrow were collected. Plasma and tissue extract samples were analyzed for levels of total radioactivity, peginesatide, and potential metabolites using LSC. Tissue homogenates (prepared in saline at a concentration of 20% [w/v] for the liver, kidneys and testes and 10% [w/v] for the spleen and bone marrow) were analyzed for radioactivity by LSC following combustion. The concentration of radioactivity in the blood, plasma, and tissues was calculated and expressed as ug equiv·g^-1 or mL based on the LSC counts and the specific activity of the dosing solution.

[6] = set-up: species or system male Sprague-Dawley rats; conditions: rat, in vivo, iv
Protocol: as §1
The urine and fecal samples were obtained from the animals (n = 3) dosed in the mass balance study. Urine and fecal samples were collected every 24h and were combined into 2 aliquots (0-168 and 168-336h) for metabolite analysis. The urine and fecal samples were subjected to analysis by HPLC-fraction collection. Urine sample radioactivity was measured by LSC and fecal homogenate samples were measured by LSC following combustion.

## Peginesatide
[1]
  clearance in a rat chronic renal insufficiency model compared to a rat with normal renal function: twofold lower clearance
[2]; human donor liver and kidney microsomes and S9 fractions
  metabolites after incubation with microsomes (metabolic stability in vitro): no metabolites were observed
[2]; monkey liver and kidney microsomes and S9 fractions
  metabolites after incubation with microsomes (metabolic stability in vitro): no metabolites were observed
[2]; rat liver and kidney microsomes and S9 fractions
  metabolites after incubation with microsomes (metabolic stability in vitro): no metabolites were observed
[3]; single IV administration in humans, ref Stead et al. 2006
  reticulocytes and hemoglobin levels: dose-dependent increases in reticulocytes and hemoglobin levels
[3]; single IV administration in rats, ref Fan et al. 2006
  reticulocytes and hemoglobin levels: dose-dependent increases in reticulocytes and hemoglobin levels
[4]
  fecal recovery of the total radioactive dose: 5 % of the total radioactive dose
  urinary recovery of the total radioactive dose: 23 % of the total radioactive dose
[5]
  Day 14 concentration, Bone marrow: 3.22 μg equiv·g^−1 or mL
  Day 14 concentration, Liver: 5.63 μg equiv·g^−1 or mL
  Day 14 concentration, Plasma: 1.94 μg equiv·g^−1 or mL
  Day 14 concentration, Spleen: 14.3 μg equiv·g^−1 or mL
  Day 14 concentration, Testes: 2.68 μg equiv·g^−1 or mL
  percent radioactivity, Bone marrow, Day 14: 58.2%
  percent radioactivity, Kidneys, Day 14: 54.1%
  percent radioactivity, Liver, Day 14: 63.2%
  percent radioactivity, Spleen, Day 14: 61.2%
  percent radioactivity, Testes, Day 14: 66.0%
  share of total tissue radioactivity across liver, spleen, kidney, testes and bone marrow: 54-66%
[6]
  Percent dose excretion, Feces 0–168 h: 1.9 % dose
  Percent dose excretion, Feces 0–336 h: 1.9 % dose
  Percent dose excretion, Feces 168–336 h: LOQ (0)
  Percent dose excretion, Urine 0–168 h: 23.3 % dose
  Percent dose excretion, Urine 0–336 h: 27.5 % dose
  Percent dose excretion, Urine 168–336 h: 4.2 % dose

From publication PMC3409459, “Absorption, distribution, metabolism and excretion of peginesatide, a novel erythropoiesis-stimulating agent, in rats” (Xenobiotica; the Fate of Foreign Compounds in Biological …, 2011)
